According to patent publication WO2019173771A1 (dated 2019):

Legend:
[1] = molecular target: T1, recombinant human CD147-Fc chimeric protein (R&D Systems, cat. no. 927-EMN-050), glycosylated (human, UniProt P35613-2 25-205, glycosylated (as supplied; migrated at about 62 kDa)); experiment: ELISA, CD147-Fc adsorbed at 1 ug/mL
T1 construct: Bought protein; also called glycosylated CD147-Fc fusion protein; glycosylated CD147 antigen; not shown: Fc part of the bought chimeric protein
T1 sequence (looked up): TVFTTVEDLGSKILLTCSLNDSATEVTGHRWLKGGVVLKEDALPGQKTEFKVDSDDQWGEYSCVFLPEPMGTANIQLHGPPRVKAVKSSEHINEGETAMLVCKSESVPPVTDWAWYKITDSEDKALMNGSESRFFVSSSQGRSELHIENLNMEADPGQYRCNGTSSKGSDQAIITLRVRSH

[2] = molecular target: T2, cynomolgus CD147 on the cynomolgus primary kidney epithelial cell line (cynomolgus monkey); experiment: FACS on the cynomolgus primary kidney epithelial cell line, Alexa Fluor 647 anti-human IgG
T2 construct: whole, on cells; also called cynomolgus monkey CD147

[3] = molecular target: T3, recombinant human CD147-Fc chimeric protein (R&D Systems, cat. no. 927-EMN-050), deglycosylated (human, UniProt P35613-2 25-205, deglycosylated of N- and simple O-linked carbohydrates (Protein Deglycosylation Mix II or Enzymatic Protein Deglycosylation Kit; migrated at 52 and 48 kDa)); experiment: ELISA, deglycosylated CD147-Fc adsorbed at 1 ug/mL
T3 construct: Same bought protein as m6 after enzymatic deglycosylation; also called deglycosylated CD147-Fc fusion protein; deglycosylated CD147 antigen; not shown: Fc part of the bought chimeric protein
T3 sequence (looked up): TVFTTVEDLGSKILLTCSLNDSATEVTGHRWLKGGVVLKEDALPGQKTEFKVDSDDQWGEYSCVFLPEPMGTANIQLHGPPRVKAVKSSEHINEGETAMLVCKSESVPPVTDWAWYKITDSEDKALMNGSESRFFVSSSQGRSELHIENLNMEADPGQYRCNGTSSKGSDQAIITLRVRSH

B1: humanized anti-human CD147 hu3A11 antibody (3A11 Lc1 / Hc1) (antibody, V domains shown)
VH: EVQLVESGGGLVQPGGSLRLSCAASGFTFSNYWMDWVRQAPGKGLEWVGEIRLKSYNYATHYAASVKGRFTISRDDSKNSVYLQMNSLKTEDTAVYYCTAAGTDYWGQGTLVTVSS
VL: DIQMTQSPSSLSASVGDRVTITCRASQSVRTDVGWYQQKPGKAPKLLIYYSSNRYTGVPSRFSGSGSGTDFTLTISSLQPEDFATYYCQQDYSSPYTFGQGTKLEIK
notes: also called hu 3A11 Lc1 / Hc1; huHc1 / huLc1
binding result [1]: binds | Kd [2]: 1.3 nM | binding result [3]: binds
